Laboratory results as given in patent US20050008615A1.

Each substance was assayed against human IL-18 binding protein (human) (UniProt O95998) (assay: SPR (BIAcore)).

Chain of native human IL-18 (SEQ ID NO:1) (Q14116 37-193): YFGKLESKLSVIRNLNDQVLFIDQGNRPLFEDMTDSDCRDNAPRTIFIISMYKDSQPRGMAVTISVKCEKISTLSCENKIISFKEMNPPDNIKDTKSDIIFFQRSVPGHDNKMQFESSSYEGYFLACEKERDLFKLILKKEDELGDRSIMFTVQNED

Substance | Kd
human IL-18 C38S, C68S, L144C (SEQ ID NO:9) monopegylated at C144 with 20K PEG (from UniProt Q14116 37-193) (ligand) | 1.56 nM
human IL-18 C38S, C68D, D157C (SEQ ID NO:8) monopegylated at C157 with 30K PEG (from UniProt Q14116 37-192) (ligand) | 4.91 nM
human IL-18 C38S, C68D, L144C (SEQ ID NO:7) monopegylated at C144 with 40K PEG (from UniProt Q14116 37-193) (ligand) | 4.71 nM
human IL-18 C38S, C68D, D157C (SEQ ID NO:8) monopegylated at C157 with 40K PEG (from UniProt Q14116 37-192) (ligand) | 23.6 nM
human IL-18 C38S, C68S, D157C (SEQ ID NO:10) monopegylated at C157 with 30K PEG (from UniProt Q14116 37-192) (ligand) | 1.29 nM
human IL-18 C38S, C68D, L144C (SEQ ID NO:7) monopegylated at C144 with 30K PEG (from UniProt Q14116 37-193) (ligand) | 1.51 nM
human IL-18 C38S, C68D, D157C (SEQ ID NO:8) monopegylated at C157 with 20K PEG (from UniProt Q14116 37-192) (ligand) | 5.53 nM
human IL-18 C38S, C68S, L144C (SEQ ID NO:9) monopegylated at C144 with 30K PEG (from UniProt Q14116 37-193) (ligand) | 1.51 nM

The remaining lines, values ahead:

Kd | Substance
1.27 nM | human IL-18 C38S, C68S, D157C (SEQ ID NO:10) monopegylated at C157 with 20K PEG (from UniProt Q14116 37-192) (ligand)
1.16 nM | human IL-18 C38S, C68D, L144C (SEQ ID NO:7) monopegylated at C144 with 20K PEG (from UniProt Q14116 37-193) (ligand)
0.163 nM | human IL-18 C38S, C68S, D157C (SEQ ID NO:10) (from UniProt Q14116 37-192) (ligand)
0.156 nM | human IL-18 C38S, C68S, L144C (SEQ ID NO:9) (from UniProt Q14116 37-193) (ligand)
0.135 nM | native human IL-18 (SEQ ID NO:1) (from UniProt Q14116 37-193) (ligand)
0.134 nM | human IL-18 C38S, C68D, D157C (SEQ ID NO:8) (from UniProt Q14116 37-192) (ligand)
0.101 nM | human IL-18 C38S, C68D, L144C (SEQ ID NO:7) (from UniProt Q14116 37-193) (ligand)

The substances below were run against human IL-18 binding protein (human) (UniProt O95998) (assay: IGEN electrochemiluminescence immunoassay of the IL-18:IL-18BP complex; 125 ng/ml of each).

ECL units | Substance
63500 ECL units | C157 20K PEG (human IL-18 D157C substitution mutant pegylated at C157 with 20K PEG, Table 7) (ligand)
154000 ECL units | C144 20K PEG (human IL-18 L144C substitution mutant pegylated at C144 with 20K PEG, Table 7) (ligand)
746000 ECL units | human IL-18 C38S (SEQ ID NO:4) (from UniProt Q14116 37-193) (ligand)
561000 ECL units | C144 non-PEG (human IL-18 substitution mutant with L144C, Table 7) (ligand)
377000 ECL units | C157 non-PEG (human IL-18 substitution mutant with D157C, Table 7) (ligand)
49100 ECL units | human IL-18 C38S (SEQ ID NO:4) monopegylated at C68 with 20K PEG (from UniProt Q14116 37-193) (ligand)

What follows are substances tested against human IL-18 binding protein (human) (UniProt O95998) (assay: IGEN electrochemiluminescence immunoassay of the IL-18:IL-18BP complex (ruthenium 16D10 anti-IL-18 mAb, biotinylated mAb 36 anti-IL-18BP); 125 ng/ml of each).

ECL units | Substance
1.1e+06 ECL units | native human IL-18 (SEQ ID NO:1) (from UniProt Q14116 37-193) (ligand)
